Source: article PMC10538386 (Bioconjugate chemistry, 2023)

What was measured:
[1] = target: the molecule itself; assay: transmission electron microscopy
SEC = target: the molecule itself; assay: SEC

B1: PhMV Cys1+2 (A31C S137C) coat protein, assembled as virus-like particles (natural protein, Physalis mottle virus)
chain: MDSSEVVKVKQASIPAPGSILSQPNTEQSPCIVLPFQFEATTFGTAETAAQVSLQTADPITKLTAPYRHAQIVECKAILTPTDLAVSNPLTVYLAWVPANSPATPTQILRVYGGQSFVLGGAISAAKTIEVPLNLDCVNRMLKDSVTYTDTPKLLAYSRAPTNPSKIPTASIQISGRIRLSKPMLIAN
B1: binds [1].

B2: PhMV Cys2 (S137C) coat protein, assembled as virus-like particles (natural protein, Physalis mottle virus)
chain: MDSSEVVKVKQASIPAPGSILSQPNTEQSPAIVLPFQFEATTFGTAETAAQVSLQTADPITKLTAPYRHAQIVECKAILTPTDLAVSNPLTVYLAWVPANSPATPTQILRVYGGQSFVLGGAISAAKTIEVPLNLDCVNRMLKDSVTYTDTPKLLAYSRAPTNPSKIPTASIQISGRIRLSKPMLIAN
B2: binds (SEC).

B3: PhMV Cys1 (A31C) coat protein, assembled as virus-like particles (natural protein, Physalis mottle virus)
chain: MDSSEVVKVKQASIPAPGSILSQPNTEQSPCIVLPFQFEATTFGTAETAAQVSLQTADPITKLTAPYRHAQIVECKAILTPTDLAVSNPLTVYLAWVPANSPATPTQILRVYGGQSFVLGGAISAAKTIEVPLNLDSVNRMLKDSVTYTDTPKLLAYSRAPTNPSKIPTASIQISGRIRLSKPMLIAN
B3: binds (SEC).
